This is an account of results in article PMC5602324.

Like-named read-outs stand apart in the source and are kept apart here.

Test [1] addresses microtubule (tubulin) (Sus scrofa) (UniProt Q2XVP4). Particulars: cited from earlier work.
Test [2] shares this target. Conditions: cited from earlier work. The source holds these as a separate data set.
For test [3] the target is unchanged. Particulars: cited from earlier work. This is another data set of the same source.
Test [4] deals with paclitaxel-stabilised microtubules (polymerised αβ-tubulin) (bovine) (UniProt Q6B856).
Test [5] has the same target. Kind of test: co-sedimentation; ADP state (1 mM ADP); 2.5 μM MKLP2-MD with 0–10 μM polymerised tubulin (paclitaxel-stabilised MTs), BRB80 plus 25 mM NaCl, 25°C, 100,000 × g; quadratic fit assuming 1:1 motor:tubulin dimer; apparent.
Test [6] shares this target. The test is described as follows: co-sedimentation; AMPPNP state (1 mM nucleotide); 2.5 μM MKLP2-MD with 0–10 μM polymerised tubulin (paclitaxel-stabilised MTs), BRB80 plus 25 mM NaCl, 25°C, 100,000 × g; quadratic fit assuming 1:1 motor:tubulin dimer; apparent.
The target is the same in test [7]. The test is described as follows: co-sedimentation; ADP.AlFx state (1 mM nucleotide); 2.5 μM MKLP2-MD with 0–10 μM polymerised tubulin (paclitaxel-stabilised MTs), BRB80 plus 25 mM NaCl, 25°C, 100,000 × g; quadratic fit assuming 1:1 motor:tubulin dimer; apparent.
Test [8] shares this target. The test is described as follows: co-sedimentation; no nucleotide (NN, apyrase-treated); 2.5 μM MKLP2-MD with 0–10 μM polymerised tubulin (paclitaxel-stabilised MTs), BRB80 plus 25 mM NaCl, 25°C, 100,000 × g; quadratic fit assuming 1:1 motor:tubulin dimer; apparent.
For test [9] the target is unchanged. The source holds these as a separate data set.

Regarding “Kin3 (Kif1a) motor domain (from UniProt P33173)”, the Kd in test [1] was 6.8 nM; in [2], 5.9 nM; in [3], 4.2 nM.

B1: MKLP2 motor domain, construct 25–520 (domain or fragment)
chain: ESTAADLRSVVRKDLLSDCSVISASLEDKQALLEDTSEKVKVYLRIRPFLTSELDRQEDQGCVCIENTETLVLQAPKDSFALKSNERGVGQATHKFTFSQIFGPEVGQVAFFNLTMKEMVKDVLKGQNWLIYTYGVTNSGKTYTIQGTSKDAGILPQSLALIFNSLQGQLHPTPDLKPLLSNEVIWLDSKQIRQEEMKKLSLLIGGLQEEELSTSVKKRVHTESRIGASNSFDSGVAGLSSTSQFTSSSQLDETSQLWAQPDTVPVSVPADIRFSVWISFFEIYNELLYDLLEPPSHQHKRQTLRLCEDQNGNPYVKDLNWIHVRDVEEAWKLLKVGRKNQSFASTHMNQQSSRSHSIFSIRILHLQGEGDIVPKISELSLCDLAGSERCKHQKSGERLKEAGNINTSLHTLGRCIAALRQNQQNRSKQNLIPFRDSKLTRVFQGFFTGRGRSCMIVNVNPCASTYDETLHAAKFSALASQLVHAPPVHLGIPSLH
As to B1, the MT-stimulated steady-state ATPase, K0.5,MT (Michaelis Menten fit of velocity against [tubulin]) in test [4] amounted to 1.07 µM. The Kd in test [5] worked out at 363 nM; in test [6], 43 nM; in test [7] it was 355 nM; in [8], 43 nM.

B2: MKLP2 motor domain, construct 1–520 (domain or fragment)
chain: MSHRILSPPAGLLSDEDVVDSPILESTAADLRSVVRKDLLSDCSVISASLEDKQALLEDTSEKVKVYLRIRPFLTSELDRQEDQGCVCIENTETLVLQAPKDSFALKSNERGVGQATHKFTFSQIFGPEVGQVAFFNLTMKEMVKDVLKGQNWLIYTYGVTNSGKTYTIQGTSKDAGILPQSLALIFNSLQGQLHPTPDLKPLLSNEVIWLDSKQIRQEEMKKLSLLIGGLQEEELSTSVKKRVHTESRIGASNSFDSGVAGLSSTSQFTSSSQLDETSQLWAQPDTVPVSVPADIRFSVWISFFEIYNELLYDLLEPPSHQHKRQTLRLCEDQNGNPYVKDLNWIHVRDVEEAWKLLKVGRKNQSFASTHMNQQSSRSHSIFSIRILHLQGEGDIVPKISELSLCDLAGSERCKHQKSGERLKEAGNINTSLHTLGRCIAALRQNQQNRSKQNLIPFRDSKLTRVFQGFFTGRGRSCMIVNVNPCASTYDETLHAAKFSALASQLVHAPPVHLGIPSLH
For B2, the MT-stimulated steady-state ATPase, K0.5,MT (Michaelis Menten fit of velocity against [tubulin]) in test [9] was 0.93 µM.
